Measurements taken from publication PMC10663520, “Qa-SNARE syntaxin 18 mediates lipid droplet fusion with SNAP23 and SEC22B” (Cell Discovery, 2023).

T1: GST-Flag-STX18 (full-length) (UniProt Q9P2W9 1-335)
T1 construct: syntaxin 18 (STX18), full length, in pGEX-4T-1 with GST-TEV-3xFLAG at the N-terminus; C-terminus printed as 331-DWYDS-335; The methods describe only the TEV-cleaved preparation; also called GST-STX18; GST-Flag-tagged STX18; source: E. coli BL21 (C43), purified (Glutathione Sepharose 4B); not shown: GST, N-terminal, kept; 3xFLAG, N-terminal, kept
T1 sequence (looked up): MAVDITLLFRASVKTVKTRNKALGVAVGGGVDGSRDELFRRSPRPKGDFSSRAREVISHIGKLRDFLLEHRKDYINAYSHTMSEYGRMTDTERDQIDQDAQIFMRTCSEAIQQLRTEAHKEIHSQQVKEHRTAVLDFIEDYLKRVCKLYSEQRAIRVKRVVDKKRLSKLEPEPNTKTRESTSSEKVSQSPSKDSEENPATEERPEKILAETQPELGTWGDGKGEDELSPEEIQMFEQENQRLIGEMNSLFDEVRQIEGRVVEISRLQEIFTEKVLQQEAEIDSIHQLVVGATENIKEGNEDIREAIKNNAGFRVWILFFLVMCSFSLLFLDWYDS

B1: SEC22B (full-length, purified) (natural protein, UniProt O75396 1-215, looked up)
chain: MVLLTMIARVADGLPLAASMQEDEQSGRDLQQYQSQAKQLFRKLNEQSPTRCTLEAGAMTFHYIIEQGVCYLVLCEAAFPKKLAFAYLEDLHSEFDEQHGKKVPTVSRPYSFIEFDTFIQKTKKLYIDSRARRNLGSINTELQDVQRIMVANIEEVLQRGEALSALDSKANNLSSLSKKYRQDAKYLNMRSTYAKLAAVAVFFIMLIVYVRFWWL
notes: SEC22B, full length, in pGEX with N-terminal GST and a TEV site after it; C-terminus printed as 212-FWWL-215; The uncleaved form is called GST-Flag-SEC22B in the pull-down methods; if a FLAG follows the TEV site it would remain here; also called purified SEC22B; source: E. coli BL21 (C43), purified (Glutathione Sepharose 4B, TEV on beads); not shown: GST, N-terminal, cleaved
B2: STX18-SNARE (243-305), individually purified (domain or fragment, UniProt Q9P2W9 243-305, looked up)
chain: IGEMNSLFDEVRQIEGRVVEISRLQEIFTEKVLQQEAEIDSIHQLVVGATENIKEGNEDIREA
notes: syntaxin 18 (STX18), SNARE domain, residues 243-305, in pGEX-4T-1 with GST-TEV-FLAG at the N-terminus; The TEV site lies between GST and FLAG, so the FLAG tag should remain after cleavage (surmised); source: E. coli BL21 (DE3), purified (Glutathione Sepharose 4B, TEV on beads, Superdex 75); not shown: GST, N-terminal, cleaved
B3: SEC22B-SNARE (134-194), individually purified (domain or fragment, UniProt O75396 134-194, looked up)
chain: NLGSINTELQDVQRIMVANIEEVLQRGEALSALDSKANNLSSLSKKYRQDAKYLNMRSTYA
notes: SEC22B, SNARE domain, residues 134-194, in pET28 with 6xHis at the N-terminus
B4: SNAP23 (full-length, purified) (natural protein, UniProt O00161 1-211, looked up)
chain: MDNLSSEEIQQRAHQITDESLESTRRILGLAIESQDAGIKTITMLDEQKEQLNRIEEGLDQINKDMRETEKTLTELNKCCGLCVCPCNRTKNFESGKAYKTTWGDGGENSPCNVVSKQPGPVTNGQLQQPTTGAASGGYIKRITNDAREDEMEENLTQVGSILGNLKDMALNIGNEIDAQNPQIKRITDKADTNRDRIDIANARAKKLIDS
notes: SNAP23, full length, in pGEX with N-terminal GST and a TEV site after it; The uncleaved form is called GST-Flag-SNAP23 in the pull-down methods; if a FLAG follows the TEV site it would remain here; also called purified SNAP23; source: E. coli BL21 (DE3), purified (Glutathione Sepharose 4B, TEV on beads); not shown: GST, N-terminal, cleaved
B5: GST-Flag-SNAP23 (natural protein, UniProt O00161 1-211, looked up)
chain: B4 chain
notes: SNAP23, full length, in pGEX with N-terminal GST and a TEV site after it; The cloning paragraph names no FLAG tag for this construct; the pull-down methods and legends call it GST-Flag-SNAP23; also called GST-SNAP23; GST-Flag-tagged SNAP23; source: E. coli BL21 (DE3), purified (Glutathione Sepharose 4B); not shown: GST, N-terminal, kept

How the values were obtained:
Conditions in all cases: both partners purified
[1] = target: T1, GST-Flag-STX18 (full-length); assay: pull-down; GST-Flag-tagged bait on GST agarose beads, 4 °C 1 h; 20 mM HEPES pH 7.4, 300 mM NaCl, 1 mM EDTA, 1% OG, 0.1% FOS-Choline-12; purified SEC22B (54.7 μM, 20 μL) or SNAP23 (280 μM, 5 μL) added; immunoblot and Coomassie
[2] = target: B4; assay: SEC; individually purified SNAP23, STX18-SNARE and SEC22B-SNARE, alone or as an in vitro incubated mixture of the three, on Superdex75 10/300 GL; SDS-PAGE of fractions
[3] = target: B1; assay: pull-down; GST-Flag-tagged bait on GST agarose beads, 4 °C 1 h; 20 mM HEPES pH 7.4, 300 mM NaCl, 1 mM EDTA, 1% OG, 0.1% FOS-Choline-12; purified SEC22B (54.7 μM, 20 μL) or SNAP23 (280 μM, 5 μL) added; immunoblot and Coomassie

binding result [1]	binding result [2]	Binder	also measured
binds	–	B1	–
–	binds	B2	–
–	binds	B3	–
binds	–	B4	–
–	–	B5	binding result [3]: binds
